Data taken from PMC5238724.

Target: Drosophila protamine B (Prot B), untagged recombinant (Drosophila)
Experiment: non-reducing SDS-PAGE of disulfide-linked oligomers

stoichiometry N: 2
Substance: Drosophila protamine B (Prot B), untagged recombinant (natural protein)
